Assay results: patent publication US20120164140A1

Experiments:
Experiment in all cases: cell-based or functional assay
[1] = biological target: T1, BMP-2 (unlabeled) (UniProt P12643)
T1 sequence (looked up): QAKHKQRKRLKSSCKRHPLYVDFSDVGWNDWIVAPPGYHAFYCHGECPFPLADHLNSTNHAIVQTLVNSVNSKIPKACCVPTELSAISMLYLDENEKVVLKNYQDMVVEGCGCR

[2] = biological target: T2, BMP-4 (unlabeled) (UniProt P12644)
T2 sequence (looked up): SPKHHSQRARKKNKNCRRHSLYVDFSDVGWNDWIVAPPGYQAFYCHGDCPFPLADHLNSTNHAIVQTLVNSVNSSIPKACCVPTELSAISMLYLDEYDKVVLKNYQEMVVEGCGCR

[3] = biological target: BMP-5 (UniProt P22003)
[4] = biological target: BMP-6 (UniProt P22004)
UniProt P22004, sequence (P22004 382-513 limits assumed): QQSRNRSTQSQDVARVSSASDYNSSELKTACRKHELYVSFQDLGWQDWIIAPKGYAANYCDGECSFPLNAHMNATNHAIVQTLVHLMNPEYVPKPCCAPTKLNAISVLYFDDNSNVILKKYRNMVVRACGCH

UniProt P22003, sequence (P22003 317-454 limits assumed): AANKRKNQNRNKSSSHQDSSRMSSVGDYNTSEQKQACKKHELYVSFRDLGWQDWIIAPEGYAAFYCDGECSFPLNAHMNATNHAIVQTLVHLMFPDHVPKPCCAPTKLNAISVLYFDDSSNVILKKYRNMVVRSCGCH

decrease in hepcidin promoter activation (luciferase reporter, Hep3B cells) [1]: > 90%
decrease in hepcidin promoter activation (luciferase reporter, Hep3B cells) [2]: > 90%
decrease in hepcidin promoter activation (luciferase reporter, Hep3B cells) [3]: > 90%
decrease in hepcidin promoter activation (luciferase reporter, Hep3B cells) [4]: > 90%
Substance: purified soluble human hemojuvelin fused to the Fc portion of immunoglobulin (HJV.Fc) (Fc fusion)
